Reference: publication PMC9352680, “A comprehensive thermodynamic model for RNA binding by the Saccharomyces cerevisiae Pumilio protein PUF4”
Residue numbers refer to the chain shown, from its start. Numbers in names are those of the source.

T1: PUF4 RNA-binding domain (Saccharomyces cerevisiae, UniProt P25339 537-888)
T1 sequence: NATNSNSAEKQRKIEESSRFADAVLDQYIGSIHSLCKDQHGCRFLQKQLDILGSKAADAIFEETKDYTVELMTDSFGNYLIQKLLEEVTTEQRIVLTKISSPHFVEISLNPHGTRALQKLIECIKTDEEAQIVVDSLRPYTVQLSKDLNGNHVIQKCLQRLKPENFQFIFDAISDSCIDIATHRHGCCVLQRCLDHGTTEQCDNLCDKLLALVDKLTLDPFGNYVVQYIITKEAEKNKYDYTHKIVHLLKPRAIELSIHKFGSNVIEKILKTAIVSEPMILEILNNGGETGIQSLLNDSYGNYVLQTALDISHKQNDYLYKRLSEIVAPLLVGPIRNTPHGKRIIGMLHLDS

B1: Ib_S2_P5E.1_K5.1_C5.1_H5.1_A5.1_[A7T]_F5.1_[A10G]_T5.1 (ssRNA)
RNA: UUUGAUUAAUAUGAUAUCGUUCUUUCUUGUAUUUUUGUUCUUUCUCGAUAUCAUAUUAAUCUUU
B2: Ib_S2_P5E.1_K5.1_C5.1_H5.1_A5.1_[T5C]_[T6A]_F5.1_T5.1 (ssRNA)
RNA: B1 RNA with U32C, U33A, U34A, G37A
B3: Ib_S2_P5E.1_K5.1_C5.1_H5.1_[T1A]_A5.1_[T5C]_F5.1_T5.1 (ssRNA)
RNA: B1 RNA with U28A, U32C, U34A, G37A
B4: Ib_S2_P5E.1_K5.1_C5.1_H5.1_[A4T]_A5.1_[T5G]_F5.1_T5.1 (ssRNA)
RNA: B1 RNA with A31U, U32G, U34A, G37A
B5: Ib_S2_P5E.1_K5.1_C5.1_H5.1_A5.1_[T5G]_[A7C]_F5.1_T5.1 (ssRNA)
RNA: B1 RNA with U32G, U34C, G37A
B6: Ib_S2_P5E.1_K5.1_C5.1_H5.1_[T3C]_A5.1_[T5G]_F5.1_T5.1 (ssRNA)
RNA: B1 RNA with U30C, U32G, U34A, G37A
B7: Ib_S2_P5E.1_K5.1_C5.1_H5.1_[T3C]_[A4T]_A5.1_F5.1_T5.1 (ssRNA)
RNA: B1 RNA with U30C, A31U, U34A, G37A
B8: Ib_S2_P5E.1_K5.1_C5.1_H5.1_[G2T]_A5.1_[T6A]_F5.1_T5.1 (ssRNA)
RNA: B1 RNA with G29U, U33A, U34A, G37A
B9: Ib_S2_P5E.1_K5.1_C5.1_H5.1_[G2C]_[A4G]_A5.1_F5.1_T5.1 (ssRNA)
RNA: B1 RNA with G29C, A31G, U34A, G37A
B10: Ib_S2_P5E.1_K5.1_C5.1_H5.1_[A4C]_A5.1_[T5C]_F5.1_T5.1 (ssRNA)
RNA: B1 RNA with A31C, U32C, U34A, G37A
B11: Ia_S2_P5E.1_K5.1_C5.1_H5.1_[T1A]_A5.1_F5.1_T5.1 (ssRNA)
RNA: B1 RNA with U28A, U34A, G37A
B12: Ib_S2_P5E.1_K5.1_C5.1_H5.1_[A4T]_A5.1_[T5C]_F5.1_T5.1 (ssRNA)
RNA: B1 RNA with A31U, U32C, U34A, G37A
B13: Ib_S2_P5E.1_K5.1_C5.1_H5.1_[A4G]_A5.1_[T5C]_F5.1_T5.1 (ssRNA)
RNA: B1 RNA with A31G, U32C, U34A, G37A
B14: Ib_S2_P5E.1_K5.1_C5.1_H5.1_[T1A]_[G2T]_A5.1_F5.1_T5.1 (ssRNA)
RNA: B1 RNA with U28A, G29U, U34A, G37A
B15: Ib_S2_P5E.1_K5.1_C5.1_H5.1_[G2T]_A5.1_[A7G]_F5.1_T5.1 (ssRNA)
RNA: B1 RNA with G29U, U34G, G37A
B16: Ib_S2_P5E.1_K5.1_C5.1_H5.1_[A4C]_A5.1_[T5G]_F5.1_T5.1 (ssRNA)
RNA: B1 RNA with A31C, U32G, U34A, G37A
B17: Ib_S2_P5E.1_K5.1_C5.1_H5.1_[T1C]_[T3C]_A5.1_F5.1_T5.1 (ssRNA)
RNA: B1 RNA with U28C, U30C, U34A, G37A
B18: Ib_S2_P5E.1_K5.1_C5.1_H5.1_[G2A]_A5.1_[T6C]_F5.1_T5.1 (ssRNA)
RNA: B1 RNA with G29A, U33C, U34A, G37A
B19: Ib_S2_P5E.1_K5.1_C5.1_H5.1_[A4C]_A5.1_[A7C]_F5.1_T5.1 (ssRNA)
RNA: B1 RNA with A31C, U34C, G37A
B20: Ib_S2_P5E.1_K5.1_C5.1_H5.1_[T3C]_A5.1_[A7T]_F5.1_T5.1 (ssRNA)
RNA: B1 RNA with U30C, G37A
B21: Ib_S2_P5E.1_K5.1_C5.1_H5.1_[A4G]_A5.1_[T6C]_F5.1_T5.1 (ssRNA)
RNA: B1 RNA with A31G, U33C, U34A, G37A
B22: Ic_S2_P5E.1_K5.1_C5.1_H5.1_A5.1_[A7T]_F5.1_[A10T]_T5.1 (ssRNA)
RNA: B1 RNA with G37U
B23: Ib_S2_P5E.1_K5.1_C5.1_H5.1_[T1C]_A5.1_[T5C]_F5.1_T5.1 (ssRNA)
RNA: B1 RNA with U28C, U32C, U34A, G37A
B24: Ib_S2_P5E.1_K5.1_C5.1_H5.1_[G2T]_[A4T]_A5.1_F5.1_T5.1 (ssRNA)
RNA: B1 RNA with G29U, A31U, U34A, G37A
B25: Ib_S2_P5E.1_K5.1_C5.1_H5.1_[T3G]_[A4T]_A5.1_F5.1_T5.1 (ssRNA)
RNA: B1 RNA with U30G, A31U, U34A, G37A
B26: Ib_S2_P5E.1_K5.1_C5.1_H5.1_[T3G]_[A4C]_A5.1_F5.1_T5.1 (ssRNA)
RNA: B1 RNA with U30G, A31C, U34A, G37A
B27: Ib_S2_P5E.1_K5.1_C5.1_H5.1_[G2C]_[A4C]_A5.1_F5.1_T5.1 (ssRNA)
RNA: B1 RNA with G29C, A31C, U34A, G37A
B28: Ib_S2_P5E.1_K5.1_C5.1_H5.1_[T1C]_[A4T]_A5.1_F5.1_T5.1 (ssRNA)
RNA: B1 RNA with U28C, A31U, U34A, G37A
B29: Ib_S2_P5E.1_K5.1_C5.1_H5.1_[A4G]_A5.1_[A7T]_F5.1_T5.1 (ssRNA)
RNA: B1 RNA with A31G, G37A
B30: Ib_S2_P5E.1_K5.1_C5.1_H5.1_[A4T]_A5.1_[T6A]_F5.1_T5.1 (ssRNA)
RNA: B1 RNA with A31U, U33A, U34A, G37A
B31: Ib_S2_P5E.1_K5.1_C5.1_H5.1_[T3C]_A5.1_[T5C]_F5.1_T5.1 (ssRNA)
RNA: B1 RNA with U30C, U32C, U34A, G37A
B32: Ib_S2_P5E.1_K5.1_C5.1_H5.1_[G2C]_A5.1_[T6A]_F5.1_T5.1 (ssRNA)
RNA: B1 RNA with G29C, U33A, U34A, G37A
B33: Ib_S2_P5E.1_K5.1_C5.1_H5.1_A5.1_[T5G]_[A7G]_F5.1_T5.1 (ssRNA)
RNA: B1 RNA with U32G, U34G, G37A
B34: Ib_S2_P5E.1_K5.1_C5.1_H5.1_A5.1_[A7C]_F5.1_[A10C]_T5.1 (ssRNA)
RNA: B1 RNA with U34C, G37C
B35: Ib_S2_P5E.1_K5.1_C5.1_H5.1_[T1A]_A5.1_[A7G]_F5.1_T5.1 (ssRNA)
RNA: B1 RNA with U28A, U34G, G37A
B36: Ib_S2_P5E.1_K5.1_C5.1_H5.1_[A4C]_A5.1_[T5A]_F5.1_T5.1 (ssRNA)
RNA: B1 RNA with A31C, U32A, U34A, G37A
B37: Ia_S2_P5E.1_K5.1_C5.1_H5.1_[T1C]_A5.1_F5.1_T5.1 (ssRNA)
RNA: B1 RNA with U28C, U34A, G37A
B38: Ib_S2_P5E.1_K5.1_C5.1_H5.1_[T1G]_[G2T]_A5.1_F5.1_T5.1 (ssRNA)
RNA: B1 RNA with U28G, G29U, U34A, G37A
B39: Ib_S2_P5E.1_K5.1_C5.1_H5.1_[A4T]_A5.1_[T6C]_F5.1_T5.1 (ssRNA)
RNA: B1 RNA with A31U, U33C, U34A, G37A
B40: Ib_S2_P5E.1_K5.1_C5.1_H5.1_[G2A]_[A4C]_A5.1_F5.1_T5.1 (ssRNA)
RNA: B1 RNA with G29A, A31C, U34A, G37A
B41: Ib_S2_P5E.1_K5.1_C5.1_H5.1_[T3C]_A5.1_[A7G]_F5.1_T5.1 (ssRNA)
RNA: B1 RNA with U30C, U34G, G37A
B42: Ib_S2_P5E.1_K5.1_C5.1_H5.1_[T1A]_[G2C]_A5.1_F5.1_T5.1 (ssRNA)
RNA: B1 RNA with U28A, G29C, U34A, G37A
B43: Ib_S2_P5E.1_K5.1_C5.1_H5.1_A5.1_[T5C]_[A7C]_F5.1_T5.1 (ssRNA)
RNA: B1 RNA with U32C, U34C, G37A
B44: Ib_S2_P5E.1_K5.1_C5.1_H5.1_[A4G]_A5.1_[T6A]_F5.1_T5.1 (ssRNA)
RNA: B1 RNA with A31G, U33A, U34A, G37A
B45: Ib_S2_P5E.1_K5.1_C5.1_H5.1_A5.1_[A7T]_F5.1_[A10C]_T5.1 (ssRNA)
RNA: B1 RNA with G37C
B46: Ib_S2_P5E.1_K5.1_C5.1_H5.1_[A4C]_A5.1_[T6A]_F5.1_T5.1 (ssRNA)
RNA: B1 RNA with A31C, U33A, U34A, G37A
B47: Ia_S2_P5E.1_K5.1_C5.1_H5.1_A5.1_F5.1_[A10T]_T5.1 (ssRNA)
RNA: B1 RNA with U34A, G37U
B48: Ia_S2_P5E.1_K5.1_C5.1_H5.1_[G2C]_A5.1_F5.1_T5.1 (ssRNA)
RNA: B1 RNA with G29C, U34A, G37A
B49: Ib_S2_P5E.1_K5.1_C5.1_H5.1_[T1G]_[G2C]_A5.1_F5.1_T5.1 (ssRNA)
RNA: B1 RNA with U28G, G29C, U34A, G37A
B50: Ib_S2_P5E.1_K5.1_C5.1_H5.1_[G2C]_A5.1_[T5A]_F5.1_T5.1 (ssRNA)
RNA: B1 RNA with G29C, U32A, U34A, G37A
B51: Ib_S2_P5E.1_K5.1_C5.1_H5.1_[G2T]_A5.1_[T5C]_F5.1_T5.1 (ssRNA)
RNA: B1 RNA with G29U, U32C, U34A, G37A
B52: Ib_S2_P5E.1_K5.1_C5.1_H5.1_[G2A]_A5.1_[T5G]_F5.1_T5.1 (ssRNA)
RNA: B1 RNA with G29A, U32G, U34A, G37A
B53: Ib_S2_P5E.1_K5.1_C5.1_H5.1_[A4C]_A5.1_[A7T]_F5.1_T5.1 (ssRNA)
RNA: B1 RNA with A31C, G37A
B54: Ib_S2_P5E.1_K5.1_C5.1_H5.1_[T1A]_A5.1_[T6C]_F5.1_T5.1 (ssRNA)
RNA: B1 RNA with U28A, U33C, U34A, G37A
B55: Ib_S2_P5E.1_K5.1_C5.1_H5.1_[G2T]_A5.1_[T6C]_F5.1_T5.1 (ssRNA)
RNA: B1 RNA with G29U, U33C, U34A, G37A
B56: Ib_S2_P5E.1_K5.1_C5.1_H5.1_[T3C]_[A4C]_A5.1_F5.1_T5.1 (ssRNA)
RNA: B1 RNA with U30C, A31C, U34A, G37A
B57: Ia_S2_P5E.1_K5.1_C5.1_H5.1_A5.1_F5.1_[A10C]_T5.1 (ssRNA)
RNA: B1 RNA with U34A, G37C
B58: Ib_S2_P5E.1_K5.1_C5.1_H5.1_[T3C]_A5.1_[T6C]_F5.1_T5.1 (ssRNA)
RNA: B1 RNA with U30C, U33C, U34A, G37A

molecular target: T1, PUF4 RNA-binding domain; assay: Mg; RNA-MaP; 20 mM Na-HEPES pH 7.4, 30 mM KOAc, 0.75 mM MgCl2, 0.1% Tween-20, 5% glycerol, 0.1 mg/mL BSA, 2 mM DTT; 25 C; 0.0125-409.6 nM protein; conditions: tags: N-His6-TEV cleaved; C-SNAP kept, Cy3B-labelled; label: tethered on chip by stalled RNA polymerase

Binder | Kd [µM]
UCUCUUUCUAUAUAUCUCUU (ssRNA) [Ia_S1_P3E.1_K3.1_C3.1_H3.1_[G2C]_A3.1_F3.1_T3.1] | > 2.3
B1 | 0.0108
B2 | 0.00195
B3 | > 2.3
B4 | 0.00664
B5 | 0.00958
B6 | 0.909
B7 | 0.93
B8 | 1.97
B9 | 0.522
B10 | 0.0226
B11 | > 2.3
B12 | 0.011
B13 | 0.0093
B14 | 1.61
B15 | > 2.3
B16 | 0.04
B17 | > 2.3
B18 | 0.353
B19 | 0.0943

Binder | Kd [µM]
B20 | 0.676
B21 | 0.00803
B22 | 0.0183
B23 | 0.331
B24 | > 2.3
B25 | 0.965
B26 | 1.02
B27 | > 2.3
B28 | 0.836
B29 | 0.0103
B30 | 0.0289
B31 | 0.276
B32 | > 2.3
B33 | 0.00914
B34 | 0.0145
B35 | > 2.3
B36 | 0.00571
B37 | 0.258
B38 | 0.0391
B39 | 0.00806

Binder | Kd [µM]
B40 | 0.81
B41 | 1.6
B42 | 1.4
B43 | 0.00213
B44 | 0.0119
B45 | 0.013
B46 | 0.0281
B47 | 0.0077
B48 | 2.16
B49 | 1.12
B50 | 0.87
B51 | > 2.3
B52 | 1.49
B53 | 0.0244
B54 | 1.68
B55 | 2.03
B56 | 1.54
B57 | 0.0127
B58 | 0.531
